This passage reports response results from article PMC3751551.

Positions count from the first letter of the chain named. Names may count otherwise.

Sequences and labels used below:
T1: Vm-EYFP, P05923
T1 chain: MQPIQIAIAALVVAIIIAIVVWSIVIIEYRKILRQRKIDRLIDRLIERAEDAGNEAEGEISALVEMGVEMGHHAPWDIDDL

B1: Rluc-BST2, Q10589 P40A; L41A; I42A (protein)
chain: MASTSYDYCRVPMEDGDKRCKLLLGIGILVLLIIVILGVAAAIFTIKANSEACRDGLRAVMECRNVTHLLQQELTEAQKGFQDVEAQAATCNHTVMALMASLDAEKAQGQKKVEELEGEITTLNHKLQDASAEVERLRRENQVLSVRIADKKYYPSSQDSS
B2: Rluc-BST2, Q10589 I46A; K47A (protein)
chain: B1 chain with A40P, A41L, A42I, I46A, K47A
B3: Rluc-BST2, Q10589 I43A; F44A; T45A (protein)
chain: B1 chain with A40P, A41L, A42I, I43A, F44A, T45A
B4: Rluc-BST2, Q10589 L31A; L32A; I33A (protein)
chain: B1 chain with L31A, L32A, I33A, A40P, A41L, A42I
B5: Rluc-BST2, Q10589 I34A; V35A; I36A (protein)
chain: B1 chain with I34A, V35A, I36A, A40P, A41L, A42I
B6: Rluc-BST2, Q10589 L37A; G38A; V39A (protein)
chain: B1 chain with L37A, G38A, V39A, A40P, A41L, A42I
B7: Rluc-BST2, Q10589 G25A; I26A; G27A (protein)
chain: B1 chain with G25A, I26A, G27A, A40P, A41L, A42I
B8: Rluc-BST2, Q10589 L22A; L23A; L24A (protein)
chain: B1 chain with L22A, L23A, L24A, A40P, A41L, A42I
B9: Rluc-BST2, Q10589 I28A; L29A; V30A (protein)
chain: B1 chain with I28A, L29A, V30A, A40P, A41L, A42I
B10: Rluc-BST2, Q10589 L41A (protein)
chain: B1 chain with A40P, A42I
B11: Rluc-BST2, Q10589 G38A (protein)
chain: B1 chain with G38A, A40P, A41L, A42I
B12: Rluc-BST2, Q10589 V39A (protein)
chain: B1 chain with V39A, A40P, A41L, A42I
B13: Rluc-BST2, Q10589 V35A (protein)
chain: B1 chain with V35A, A40P, A41L, A42I
B14: Rluc-BST2, Q10589 P40A (protein)
chain: B1 chain with A41L, A42I
B15: Rluc-BST2, Q10589 L37A (protein)
chain: B1 chain with L37A, A40P, A41L, A42I
B16: Rluc-BST2, Q10589 I36A (protein)
chain: B1 chain with I36A, A40P, A41L, A42I
B17: Rluc-BST2, Q10589 I42A (protein)
chain: B1 chain with A40P, A41L
B18: Rluc-BST2, Q10589 I34A (protein)
chain: B1 chain with I34A, A40P, A41L, A42I

The first experiment concerns the target Rluc-BST2 (UniProt Q10589). Briefly: BRET assay. The settings on record: HEK293T cells; parent: est. 1.4; read off a plot. Background: Bioluminescence resonance energy transfer reports proximity on the nanometre scale.
Regarding Vm-EYFP (from UniProt P05923) A14V, the response was determined as 1.2. With “Vm-EYFP (from UniProt P05923) A14V; I15A; I16A”, the response was 0.76. On the same count and under the same terms, then Vm-EYFP (from UniProt P05923) A18V, with 0.52; and Vm-EYFP (from UniProt P05923) E28A, with 1.1; and “Vm-EYFP (from UniProt P05923) I5A; V6A; A7V”, with 0.98.

Turning to “Vm-EYFP (from UniProt P05923) I8A; V9A; A10V”, the response was determined as 1.2. On the same count and under the same terms, then Vm-EYFP (from UniProt P05923) I15A, with 1.2; and Vm-EYFP (from UniProt P05923) I16A, with 1.2; and Vm-EYFP (from UniProt P05923) I17A, with 1.4. Take “Vm-EYFP (from UniProt P05923) I17A; A18V; I19A”: the response amounted to 0.58. Same read-out and setting: the result for Vm-EYFP (from UniProt P05923) I19A reads 1.2; that for Vm-EYFP (from UniProt P05923) I26A, 1.3; that for “Vm-EYFP (from UniProt P05923) I26A; I27A; E28A”, 0.85. Still for that read-out and setting: the result for Vm-EYFP (from UniProt P05923) I27A reads 1.3. In the case of Vm-EYFP (from UniProt P05923) L11A, the response was 0.93. For the molecule “Vm-EYFP (from UniProt P05923) L11A; V12A; V13A”, the response was 0.9. “Vm-EYFP (from UniProt P05923) S23A; I24A; V25A”: the response stood at 1.1.

As for Vm-EYFP (from UniProt P05923) V12A, the response was 1.3. On the same count and under the same terms, the result for Vm-EYFP (from UniProt P05923) V13A reads 1.3; that for Vm-EYFP (from UniProt P05923) V20A, 1.3.

On to “Vm-EYFP (from UniProt P05923) V20A; V21A; W22A”, for which the response is 0.41.

With Vm-EYFP (from UniProt P05923) V21A, the response came to 1.1. Still for that read-out and setting: then Vm-EYFP (from UniProt P05923) W22A, with 0.69.

A further experiment addresses T1, Vm-EYFP, P05923. As to the kind of experiment: BRET assay. Conditions: chain shown with the change; HEK293T cells; forty-eight hours post-transfection; parent: est. 1.6; read off a plot.
Take B1: the response was 0.82. As to B2, the response came out at 1.6. On the same count and under the same terms, then B3, with 1.6.

Regarding B4, the response was found to be 1.3.

Consider B5, for which the response came to 0.88. B6: the response turned out to be 0.95. On the same count and under the same terms, the result for B7 reads 1.7. B8: the response was 1.3. With B9, the response is 1.4.

Staying with this experiment, now noted: chain shown with the change; HEK293T cells; parent: est. 1.6; read off a plot.
For the molecule B10, the response was 0.93. For B11, the response came to 1.5. On the same count and under the same terms, then B12, with 1.6; and B13, with 1.5; and B14, with 1.1. As to B15, the response is 0.77. For B16, the response turned out to be 1.5. In the case of B17, the response worked out at 1.4. Still for that read-out and setting: the result for B18 reads 1.1.
